This is an account of results in publication PMC6131546, “Interaction of TBC1D9B with Mammalian ATG8 Homologues Regulates Autophagic Flux” (Scientific Reports, 2018).

The assay deals with T1, FLAG-TBC1D9Bα from a stable HEK293 cell line (human, UniProt Q66K14-1 1-1250).
T1 construct: human TBC1D9B, alpha splice form, in pcDNA3.1-FLAG; also called FLAG-tagged recombinant TBC1D9B; source: purified (anti-FLAG M2 beads, eluted with glycine HCl) for the pull-down; in lysate for the co-IP
The assay can be described thus: pull-down; GST fusion on glutathione-sepharose beads, incubated with recombinant FLAG-TBC1D9B or His-LC3B at 4 °C for 1 hour; 20 mM Tris pH 7.4, 0.1 mM EDTA, 100 mM NaCl; SDS-PAGE with Coomassie Brilliant Blue. To be noted: both partners purified.

T1 sequence (Q66K14 whole entry, canonical isoform): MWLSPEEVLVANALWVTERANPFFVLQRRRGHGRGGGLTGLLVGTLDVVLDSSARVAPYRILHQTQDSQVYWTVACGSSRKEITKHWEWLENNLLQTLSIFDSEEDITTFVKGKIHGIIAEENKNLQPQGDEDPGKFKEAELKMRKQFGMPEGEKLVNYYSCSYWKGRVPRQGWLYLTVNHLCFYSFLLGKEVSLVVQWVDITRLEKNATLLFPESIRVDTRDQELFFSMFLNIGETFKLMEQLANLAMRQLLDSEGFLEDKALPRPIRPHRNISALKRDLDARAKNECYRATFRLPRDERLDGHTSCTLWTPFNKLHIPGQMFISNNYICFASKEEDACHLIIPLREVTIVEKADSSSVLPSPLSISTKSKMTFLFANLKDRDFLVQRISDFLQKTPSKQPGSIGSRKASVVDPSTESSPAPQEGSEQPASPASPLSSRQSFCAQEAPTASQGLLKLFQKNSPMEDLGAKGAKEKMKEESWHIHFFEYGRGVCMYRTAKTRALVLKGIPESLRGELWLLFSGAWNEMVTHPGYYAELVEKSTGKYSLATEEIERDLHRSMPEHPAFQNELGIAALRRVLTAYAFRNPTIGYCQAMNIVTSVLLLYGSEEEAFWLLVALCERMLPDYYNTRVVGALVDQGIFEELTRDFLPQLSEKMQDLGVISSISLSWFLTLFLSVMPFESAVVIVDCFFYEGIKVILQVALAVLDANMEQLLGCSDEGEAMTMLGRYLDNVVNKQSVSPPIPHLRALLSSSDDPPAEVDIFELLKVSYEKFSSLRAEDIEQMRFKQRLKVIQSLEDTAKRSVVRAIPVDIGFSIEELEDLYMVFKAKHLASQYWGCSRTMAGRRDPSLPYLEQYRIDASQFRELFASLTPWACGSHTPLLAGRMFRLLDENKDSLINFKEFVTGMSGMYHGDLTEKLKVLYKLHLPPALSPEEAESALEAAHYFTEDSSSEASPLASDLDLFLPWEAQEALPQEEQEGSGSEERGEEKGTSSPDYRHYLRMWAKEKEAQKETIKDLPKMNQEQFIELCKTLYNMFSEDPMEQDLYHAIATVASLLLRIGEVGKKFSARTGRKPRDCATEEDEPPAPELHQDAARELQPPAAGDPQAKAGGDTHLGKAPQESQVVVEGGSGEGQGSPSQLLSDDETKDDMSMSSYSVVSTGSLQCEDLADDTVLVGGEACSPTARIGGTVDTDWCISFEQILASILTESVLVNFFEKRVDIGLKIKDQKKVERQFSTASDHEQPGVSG

B1: recombinant GST-GABARAP (natural protein, human, UniProt O95166 1-117, looked up)
chain: MKFVYKEEHPFEKRRSEGEKIRKKYPDRVPVIVEKAPKARIGDLDKKKYLVPSDLTVGQFYFLIRKRIHLRAEDALFFFVNNVIPPTSATMGQLYQEHHEEDFFLYIAYSDESVYGL
notes: human GABARAP, cloned into pGEX-6p; also called GST-fused GABARAP; source: E. coli BL21, purified (glutathione-sepharose)
B1: the binding result was “binds”.
